# Measured values published in the DeepSol protein solubility set.
# Assay: soluble on expression in E. coli; label from the status in PepcDB or PDB records
row,Sequence,soluble on expression in E. coli
1,MGSDKIHHHHHHMILAAKLFGISENGIRVAVTRLASEGVIVSAERGFYQLSEQSLEWADVMLNRRAGLKETKAWNQKYLCVLTGTLGRVDRTALKRRERALKKYGFRELEPSVYIRPDNLVISLEDMLEHMKSIGLESGAKMCHINSFDQITTGMIKDLWQTENLNKNYEKYSHIIQHWLSRVPALGLEDAARESLLLGRQTISLLMNDPLLPEPFVNVEARDQFTADVKKLDEVGQRLWKQLHELTFGTAATSLLNLELPAVADVTPKILN,not soluble
2,MGSDKIHHHHHHMTQPPQSLQIKLANPRGFCAGVDRAISIVERALELFSPPIYVRHEVVHNRYVVQNLKDRGAVFVDELDQVPDDSIVIFSAHGVSQAVRAEAKKRGLRVFDATCPLVTKVHLQVTRASRKGIECILIGHAGHPEVEGTMGQYDNPEGGVLLVESPADVEALVVKDPDNLCFVTQTTLSMDDTADVIAALQKRFPSIQGPRKDDICYATQNRQDAVRNVADDVDLFIVVGSKNSSNSNRLMELAIKKGTQSYLVDNADDIKPEWFNDIEKVAVTAGASAPEVLVQQVIDAIAKLAPSVITEVEGRKEDTVFAVPAELR,not soluble
3,MWPLLKNNVVRTGRRYAVFQPRRFTPRPQHDAFGTKDDVRGFTVFSHAACGASLMDPLSPSRWEVALFPSSPPSLKDSCHLCAWTFGLAGPCAAWLSTRRELVGGFSKIIYIQNSAECWSVRETKRCCRICRWRSTSSSTDLRSNPYPIRWCYCWTMFPPMYPVLLLTASPVPTPLEHHHHHH,not soluble
4,VLAGIDALESSGFAAVAGKRIALVTNRSGVDRLGRRTIDLLAHAPGARLVAIFAPEHGLGTDVDAPFGDAIDADTNVVVHSLYGSRRRIAPEALSNVDVLVFDIQDAGVRFFTYLATLGYVLEAAAAAHVPVVVLDRPNPLGGDVVGGPVSDADIGSFTNYYPLPLAPGMTIGELAKLFDDRLRIGADLVVVPMENYRRWMRYGDTGLGGLPPSPNLRDAAALSLYPDIGLVEGADVSVGRGTATPFGVLGAPWIDGRALADDLRAMHLSATFTPARFVPTEGPYRGALCEGVRIERLPGPVRPGRIGLAVALALHRRYPDRFRIDAIRASVGSRAVADMLADGRPLDEIEQVVDTQNAAFSRERAAYLLY,not soluble
5,GKQDRQMIVVDPRKTDTAKLADVHLQVEPHKDYELVSALRAAAKGFNIEAEQVAGVPTETIYEAVDICKNAQFGSLFFAMGVTMSRGKHRIIDNAIQFVIDMNAYTKFVLTPMRGHYNVNGFNQVSTWVTGYPYGVDFSRGYPRYNPGETASNDVLQRGDTDMMINVASDAGAHFPQKAVQHMAKIPLVCIDPHETPSSVISNIVLPPAITGLEVSGTAYRMDGVPIELRKVIKAPEGMLSDAEIMK,not soluble
6,MNDFYVTLPSSVKNAQFENTSSRYVTRLPQVLHLEKDEYSVAVTDIIYPYSFVNLGRPLNYWIHFKNREPINVTFPAAQYDDLPHVVNSLNGVQKPRMKRGAPLILENEQVKRPKSDEPLSERDVIINKIRELEAKAKKDEEERIAREKEEKNKQREKHLATHKKAEEFAKKVQTDKDEQREKHLDTHKKAEQNAQDNQKYHDEERKKHIETQKKAEENEEKRRAKEKADRDAHVARHKQAEALEKKKREQEEKQKNEDRERATQKERREHIERHRQAEARAKALEKEKHEQEEKQKKENLERAEKERHDHIERQRQAEARAKALEQEKQEEKQKNEDRERATQKERREHLERHRQAEARAKALEKEKHERLQQEAKDKEDERARDKARKDAKAREEAKSREDVKAEKVAIDPKQVVNIPGKVYASQEAKKIIEKVNELEKQERDKIVSKVRESEAIEKEAVRASSEYHDVALKIFQKPNDRNIYDELKLSFERIRSRIKVSHFENSSDYLQFGEKDGRVSIDFLDSNILFEEFEKSCAYFLGFHDTIVRESSLAPSKIDYFGNVSTIYLYCDIVDPIIVGDSKNSLLSVIPCKGKYGEMIHHTIPHPRYLPIMNSTIDSIKIELLSEFAEPINFNWGSTVIVLHFKKI,not soluble
7,TLFDGIARAVCRAGCLPRKELYEAWEVARRVRRRFRGGRVVDLACGHGLLAWIMLLLDDSSPGALAVDRRLPPSAAGLAAVLETEWPRLRGRVRLLEADLAEVELGRDDLVVSAHACGGLTDLVLARAVAAGARVAVLPCCHDLAGADLAGLQGWLDGPLAMDVLRATGLRERGYRVFTQQ,not soluble
8,MGSDKIHHHHHHETRECIYYNANWELERTNQSGLERCEGEQDKRLHCYASWRNSSGTIELVKKGCWLDDFNCYDRQECVATEENPQVYFCCCEGNFCNERFTHLPEPG,soluble
9,MEDRIQKAVELFKSGYNCSQSVVAAFADMYGFTQEQAVRMSASFGGGIGRMRETCGAACGLFLIAGLETGATEATDREGKAANYAVVQELAAEFKKRNGSLICGELLGLKKKEPISTVPEERNTQYYSKRPCAKMVEEAARIWVEYLEKHPK,not soluble
10,MGSDKIHHHHHHACDDYLDDVPKGQKIPKTWEDYNAFIRNNFSYHFLDPDQLAVLAGDIFKLPSAVTSPSLTRANYYADESVNRIDLMTGNDKNPYFNAYEGLFAWNLIVEDVPDATECTEVQRRQLIAQGRVLRAMHYFYLANFYADQYDEATKDKLSVPLITSASVEAPSPQVTLQTIYEFMLDDLNKAVEDLPVHSESILHPNRALGYGMLARVYLSVGDYDNALKNASLALEQNDQLFNWIDLYEADKERYDDPKNYTSGVAGNPETDNVENYIYCYGSSTSGWTGLNNTSYAISPERAARFEKGDTRLLTHWKSRVSSSGIPYYAGIYALEMNKGGMRSPEMYYIKAECLARKGGEANIREAMELVNKVRKTRILLEFYQDWTAATTKEAVEKIIRDKESEYIQTQVIYCDYRRLNKDPEYARTFPRTIEGKEYILKSDSHLWIMPFPREAVSNPGNGTITQNVEK,not soluble
11,MADIQGEDLESLYGYAKQLFDGGEIAAARNVYQLLSTLDHWNFDYLLALGLCHQRLGAHNEAVVCFGRAGLIKVDDPRAAFYAGISYRLDGNAEYASKAFKAAINWCGEQIDYQAIKASAVDMLALQQEEVPLEHHHHHH,soluble
12,MRIHNDKNDHGDNNEIMDYILEKYKPLVRKKTNALYLIGGENDDLIQEGMIGLFKAVRDYKSDKEASFYSFAQLCITRQLSSALEASNRKKHMPLNTYISFSQSDSDGTEFEEMLQDDIASPEQLLIEKEKFKEFKEQLWNKLSNMEKKVLQLYLEGNNYTSIAHMLGKSDKSIDNALSRIRQKLKRK,not soluble
13,MTTTGLRPRLNVRQRKDTGYLPHSSPFSLQFRPAILYSDGYLPQVPEDKNETDKIHTPRIVPQKLERTPSDTSRSRGCHCFYAGWL,not soluble
14,MAHHHHHHMGCKNSKAREPPADTVTAAQANIATNKNSSTAPTLSPAQHHAKQTGETKRNNAASPASRGNNGEASENESRSEQPKKALGPGGNDVKQAASNSPSKQELDDEGNPLLLPNGDWVRTEGTPFYYSVEENLYFHPPSCQFYDPTNGMWYDPEKDEWYYDDENGAQE,soluble
15,MGSDKIHHHHHHMWVRVPPPAPFSIFLSPGDDIVKRRKSTRTSSFGVKGRESHDSSPFYSRAIYSNFSLPKPSEEDLIENPLPENLLDKVIEGDAREVLKKIPDCSIHLMVTSPPYNVGKEYDEDMTLDEYLEFIEEIMKEVYRVLVWGGRACFNVANLGRKPYIPLHAYLIHLFEKIGFLIRGEIIWDKGEAVSGSSTAWGSWMSPVNPVLRDQHEYIIVMSKGDLKRRKPSDREAKSTITREEFLEFTRSVWKFPPESAKRVGHPAPFPEELPYRCIQLYTFKGDVVLDPFAGVGTTCVAAVKTGRHFVGIEINPEYVKKAEERVKDILSKPTLFEDHC,not soluble
16,MASDNLSAVLYKQNDLRLEQRPIPEPKEDEVLLQMAYVGICGSDVHYYEHGRIADFIVKDPMVIGHEASGTVVKVGKNVKHLKKGDRVAVEPGVPCRRCQFCKEGKYNLCPDLTFCATPPDDGNLARYYVHAADFCHKLPDNVSLEEGALLEPLSVGVHACRRAGVQLGTTVLVIGAGPIGLVSVLAAKAYGAFVVCTARSPRRLEVAKNCGADVTLVVDPAKEEESSIIERIRSAIGDLPNVTIDCSGNEKCITIGINITRTGGTLMLVGMGSQMVTVPLVNACAREIDIKSVFRYCNDYPIALEMVASGRCNVKQLVTHSFKLEQTVDAFEAARKKADNTIKVMISCRQG,soluble
17,MNCESLLTALDVSTLLSTLSSPEKEHRRKRRRGEVANPSNTLDALVARKADDQPFEKRYLSEQEAIEGPDDEIEMKKMELDPDVSTRTCSTCGYQGKWVSEMIRHKRVHTSERPFKCRYCSRTSKWKADLIRHVAKTHGIRVVSKYSRSKVFDATNSSMDSSCSSDSDRCIISEKRTVFYRCQLCSFEDERVSVLNSHVSHLHNTSPCVCRCGAKFEDVQGALAHSNGPCSHVDMIYNVMPTYEKASPLSPCRSESSSDSGIQTDPEEEASIITSSLPTPQLGSSPLLLSPTLPVTPSFLPDIQSALLSLQPNPLMSLYLASLLQSSLLNSPTIPTSFPQIIPTTILTPSQQDEMVDVEM,not soluble
18,GPGSMPSKRATRVQKLHEGTGDDNLPVFSIFIEKEGEGQYGRIDIEIFVNKVPKSCEIFLHSCPAALTGDKRVSKPSLVRQHRFLRLTNEGLQVGERPVSRLVSLSDIENEIGRVNHGIGVVSLCRSSNTFDESFFFCLTDNRTELESLDKRHTAFGRVVYGLELLFLLRDALIPYVKEGCVIEGSPYAISDILPKAAT,soluble
19,MGSDKIHHHHHHMTIVYLYTALCTVGGADRSIIQKANYLADEMHQDVFIITDSQKERPPVFPISPRIRHIDIGIDFDRQYHHNLLVRGYYYFTLMHLYRKKLEYWLKTLKPDIVISTLGRELDFLTQLDDGSVKIGESHIAKPYTRNLHLMEQRGFPYKQIARHWRKKQEEAVKKLDALVVLTQHDADNWKEVKKACVIPNFLPFSPEKGSSCLEKRIISIGRYSEQKGYDRLIEAWIKVNRKHPDWHIRIYGEGQDRNSLQELIEKHHIENSFSLCPPTKSIQEKYLESSIYVMSSRFEGLPMALLEAMACGVPCISFDCPYGPAEIITPEEDGILVKNGNTDELADAICRLIEDTDKRIRMGKQAQKNIQRYSREEVMKLWDELFNTLTTARP,not soluble
20,MAHHHHHHMVATITFKLRSSNHVGIIEVPHRVISCREIKEAIAEKLSGSPDEIDIFVSGSSDYLHPNDELPAYTVVEVVRHVGTGRPPPKREREPVGPSNLSSAMSHAAVRAGNKNGDTATPLTEEERLAQLSEAVAVETGIDEVGAWRMRQMRNRSAAMGGGGREVTFRPPPPGYICHNCGKRGHLIQHCPAAKGVRGVKLLSLPTGIPETMLVECTMDDPAAKFVTRDGRLVKRKLDNASFVGIVTTSNADGVKPDFPSEGGNNRNDSPNSEKLETPDAGGDAAAKPQFLCAWDSVIVKNAMKAPCCGALFCETCLNERVEEAISRADASEIPLLCPGCEEPLDVPDVVEATEERKLVEALRSGKRARD,not soluble
21,MKILALDTSALVAAVAVMEDDRLLAEYMLNHRKTHSQQLVAMIREVLASLELAPKDIDVFAASTGPGSFTGLRIGVTTVKAMAYATGKPVVSVPTLDAIAYNIPMNSFTICPVMDARNNQVYTALYDWDENGQKRITDYMGIPVSELVQLIKDMGKKVIFAGDAAKMHEEYFTQELGDDCKIAPGNLLLQRASSVARLAYLKAMNNELESCFDMVPFYLRKSQAEREYEKKLCKDC,not soluble
22,MKFEYEYMETPEDLLMSLSAGFAMAMRNIATVYSYKGYLSYYTPAMSDGEELTMFVTLTKGELAPGLIDFDSENKRIEHVKKATNPEAYHFLVIRPQISTVLDKAIYDFEKSRNQP,not soluble
23,MAQFESGVKYVPYSQEQVFNKLSDLSNLESVRDKLADKVQGMEFDSDSLSFTVQGISITLRIIEREPYKCVKFESEKSPVPMNLWIQILPVEAGQAKLKVTIRAEVNMFMKAMVAKPLQDGVDKLAEMLSMIPYLEHHHHHH,soluble
